Key:
Superscript III = assay: RT-PCR of 2.2 kb eGFP transcript with Superscript III; assay type: biochemical; settings: 1.5 μg RNA
From the text: (§1) Samples were DNase treated using the Qiagen RNase-Free DNase Set (Qiagen Catalog #79254) followed by purification using the Qiagen RNeasy Mini Kit (Qiagen Catalog #74104) and manufacturer's instructions. To eliminate potential gDNA contamination, each RNA sample was DNase treated four times.
(§2) cDNA was generated using Invitrogen's SuperScript III First-Strand Synthesis System for RT-PCR (Invitrogen Catalog #18080-051) or a recombinant HIV Reverse Transcriptase (HIV RT, Worthington Biochemical Corporation Catalog #LS05003). All reactions received 2 μl 10 RT reaction buffer, 4 μl 25 mM MgCl2, 2 μl 0.1 M DTT, 1 μl 10 mM dNTPs, and 2 μM primer (8 μM when Phosphorothioate Primer used). For reactions using Superscript III, 200 U enzyme was used. Reactions using HIV RT contained 10 U enzyme. Different concentrations of RNA template were used, ranging from 1.5 to 5 μg/reaction. Table 21. No-RT and no-template controls were set up during reverse transcription. Reactions using Superscript III enzyme were incubated at 65° C. for 5 minutes, 50° C. for 60 minutes, and 85° C. for 5 minutes. Reactions using HIV RT were incubated at 65° C. for 5 minutes, 37° C. for 60 minutes, and 85° C. for 5 minutes. HIV RT was tested in the presence and absence of beta-thujaplicinol.
(§3) PCR Analysis: PCR was performed using primers PCR-F2 and PCR-R2. PCR products were resolved using a 1% agarose gel and purified using the QIAquick Gel Extraction Kit (Qiagen Catalog #28704). […]

[1] = target: T1, HIV Reverse Transcriptase (Human immunodeficiency virus type 1 group M subtype B, UniProt P04585); assay: RT-PCR of 2.2 kb eGFP transcript with HIV RT, with or without beta-thujaplicinol; assay type: biochemical
T1 construct: a recombinant HIV Reverse Transcriptase; purchased Worthington Biochemical Corporation LS05003
From the text: as §1, §2, §3

[2] = Sequence analysis of RT-PCR product against reference sequence; settings: SV40 DNA primer and HIV RT used in cDNA generation
Protocol: Sequence Analysis: Sequencing was performed using BigDye Terminator Cycle Sequencing. Data analysis was performed by GENEWIZ with DNASTAR Lasergene software. FIG. 34 (SEQ ID NO.: 23) depicts the WT eGFP Consensus sequence (2,225 bp); SV40 DNA primer and HIV RT used in cDNA generation. FIG. 35 (SEQ ID NO.: 24) depicts the Alpha-Thio-Uridine eGFP Consensus (2,225 bp); SV40 RNA primer and Superscript used in cDNA generation.

[3] = mRNA quality check before and after DNase treatment (agarose gel, OD 260/280); assay type: physicochemical
Protocol: The experimental procedure and assay readout for the analysis and removal of the mRNA contamination by plasmidic DNA was as follows: 1) the 4 mRNAs solutions were thawed, aliquoted and stored at −80° C., 2) aliquots of the mRNAs solutions were treated with the DNase as recommended by the manufacturer (Qiagen, cat #79254): four rounds of DNase were successively performed, 3) following the DNase digestion, the mRNAs were purified on columns as recommended by the manufacturer (Qiagen, RNeasy Elute), 4) the eluates were quantified and controlled on an Agarose gel, 5) a PCR amplification reaction was performed to evaluate the DNA contamination of the mRNA solutions before and after the DNase treatment.
Timeline of mRNAs solutions control and DNA digestion. mRNA solutions are thawed and digested with DNase. The solutions are purified on a column. The mRNA is quantified and quality control on an agarose gel is performed after purification. A PCR reaction of the mRNA aliquots is performed on aliquots from before and after purification.

B1: EGFP-WT: 2.2 kb wild type eGFP transcript (RNA template synthesized with plasmid pAFTAB) (nucleic acid)
DNA: TTGGCCACTCCCTCTCTGCGCGCTCGCTCGCTCACTGAGGCCGCCCGGGCAAAGCCCGGGCGTCGGGCGACCTTTGGTCGCCCGGCCTCAGTGAGCGAGCGAGCGCGCAGAGAGGGAGTGGCCAA
modifications: chemistry not fully specified; the letters are possibly those of the target site
100%: consensus sequence match to the reference sequence [2]
present: 2.2 kb fragment of interest in PCR from RT reaction (Superscript III; PBS RNA primer) | 2.2 kb fragment of interest in PCR from RT reaction (Superscript III; PCR-R2 primer) | 2.2 kb fragment of interest in PCR from RT reaction (Superscript III; SV40 DNA primer) | 2.2 kb fragment of interest in PCR from RT reaction ([1]; SV40 DNA primer, 1.5 μg RNA, β-Thujaplicinol 0 μM) | 2.2 kb fragment of interest in PCR from RT reaction ([1]; SV40 DNA primer, 2 μg RNA, β-Thujaplicinol 0 μM) | 2.2 kb fragment of interest in PCR from RT reaction ([1]; SV40 DNA primer, 2 μg RNA, β-Thujaplicinol 1 μM) | 2.2 kb fragment of interest in PCR from RT reaction ([1]; SV40 DNA primer, 5 μg RNA, β-Thujaplicinol 0.2 μM) | 2.2 kb fragment of interest in PCR from RT reaction ([1]; SV40 RNA primer, 1.5 μg RNA, β-Thujaplicinol 0 μM) | 2.2 kb fragment of interest in PCR from RT reaction ([1]; SV40 RNA primer, 1.5 μg RNA, β-Thujaplicinol 0.2 μM) | 2.2 kb fragment of interest in PCR from RT reaction ([1]; SV40 RNA primer, 2 μg RNA, β-Thujaplicinol 1 μM)
2.07: OD 260/280 Pre-treatment ([3]; mRNA solution before DNase treatment and column purification)
2.05: OD 260/280 Post-treatment ([3]; mRNA solution after DNase treatment and column purification)

— patent US20190374567A1, “Reverse Transcriptase Dependent Conversion of RNA Templates Into DNA” (priority 2016, published 2019)
